The text below walks through data of article PMC11267843, “Transcription factor binding specificities of the oomycete Phytophthora infestans reflect conserved and divergent evolutionary patterns and predict function”.

One data set has as its target PITG_08807 2R-Myb (Phytophthora infestans, UniProt D0ND89 1-188). As to the kind of experiment: EMSA; self-competition with unlabeled DNA. Conditions: protein: recombinant; tags: 6xHis; GST (N- or C-terminal, per PBM vectors); label: Cy5 (probe); blunt.
A further data set has as its target PITG_04701 HSF (Phytophthora infestans, UniProt D0N1U7 1-190). As to the kind of experiment: EMSA. The conditions noted are these: protein: recombinant, tags: 6xHis, GST (N- or C-terminal, per PBM vectors), chain copies: 3, blunt. On the technique in general: In EMSA bound probe runs differently from free probe, usually more slowly.

B1: Myb wild-type motif (dsDNA)
DNA 1: CTACACTATCATTCTCCGTTACGTCCTACTGTATTGG
DNA 2: CCAATACAGTAGGACGTAACGGAGAATGATAGTGTAG
For B1, the binding result in the data set with PITG_08807 2R-Myb is on record as “binds”.

B2: HSF two-site (wild-type motif) (dsDNA)
DNA 1: TAAATATAGCACGCTTCTAGAAACTGCAGCACAACA
DNA 2: TGTTGTGCTGCAGTTTCTAGAAGCGTGCTATATTTA
For the molecule B2, in the data set with PITG_04701 HSF (label: Cy5 (probe)), the binding result is recorded as “binds”.

B3: HSF three-site (dsDNA)
DNA 1: TAAATATAGCACGCGAATATTCTAGAAACTGCAGCACAACA
DNA 2: TGTTGTGCTGCAGTTTCTAGAATATTCGCGTGCTATATTTA
Turning to B3, the binding result with PITG_04701 HSF (label: Cy5) is recorded as “binds”.
